Source: the supplement of paper PMC9112550, “Optimization of the antimicrobial peptide Bac7 by deep mutational scanning” (BMC Biology, 2022)

What follows are sequences tested on Escherichia coli TOP10 (assay: shrunken log2 fold change of peptide-encoding DNA abundance (4.5 h post-induction vs induction); higher = less antimicrobial activity (less host growth inhibition)). Settings: time post-induction: 4.5 h; library: site-saturation at positions 5, 18, 19, 20.
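Further: peptides expressed intracellularly from a pBAD plasmid library in pooled LB shake-flask culture, induced with 0.3% L-arabinose, DNA abundance read by NGS, three biological replicates, DESeq2 with apeglm shrinkage.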

Row | Sequence | shrunken log2 fold change
1 | RRIRYRPPRLPRPRPRPILKPRP | -1.06
2 | RRIRYRPPRLPRPRPRPILTPRP | -1.08
3 | RRIRYRPPRLPRPRPRPIMKPRP | 0.0367
4 | RRIRYRPPRLPRPRPRPINRPRP | -0.018
5 | RRIRYRPPRLPRPRPRPIQVPRP | -0.0153
6 | RRIRYRPPRLPRPRPRPIRAPRP | 0.0501
7 | RRIRYRPPRLPRPRPRPISWPRP | -0.0102
8 | RRIRYRPPRLPRPRPRPITNPRP | -0.544
9 | RRIRYRPPRLPRPRPRPIVGPRP | 0.1
10 | RRIRYRPPRLPRPRPRPKAAPRP | 0.067
11 | RRIRYRPPRLPRPRPRPKADPRP | 0.0864
12 | RRIRYRPPRLPRPRPRPKANPRP | -0.512
13 | RRIRYRPPRLPRPRPRPKAPPRP | 0.291
14 | RRIRYRPPRLPRPRPRPKCSPRP | -0.433
15 | RRIRYRPPRLPRPRPRPKDDPRP | -0.153
16 | RRIRYRPPRLPRPRPRPKDQPRP | -0.48
17 | RRIRYRPPRLPRPRPRPKGIPRP | -0.228
18 | RRIRYRPPRLPRPRPRPKGNPRP | -0.423
19 | RRIRYRPPRLPRPRPRPKICPRP | -0.0342
20 | RRIRYRPPRLPRPRPRPKISPRP | -0.134
21 | RRIRYRPPRLPRPRPRPKIYPRP | -0.884
22 | RRIRYRPPRLPRPRPRPKKGPRP | -0.444
23 | RRIRYRPPRLPRPRPRPKLAPRP | -0.0901
24 | RRIRYRPPRLPRPRPRPKMYPRP | -1.46
25 | RRIRYRPPRLPRPRPRPKNEPRP | -0.372

Row | Sequence | shrunken log2 fold change
26 | RRIRYRPPRLPRPRPRPKPLPRP | 0.276
27 | RRIRYRPPRLPRPRPRPKPMPRP | 0.0517
28 | RRIRYRPPRLPRPRPRPKQIPRP | -0.456
29 | RRIRYRPPRLPRPRPRPKRQPRP | 0.00924
30 | RRIRYRPPRLPRPRPRPKRRPRP | 0.0144
31 | RRIRYRPPRLPRPRPRPKSCPRP | -0.0262
32 | RRIRYRPPRLPRPRPRPKSWPRP | -0.00323
33 | RRIRYRPPRLPRPRPRPKTLPRP | -0.459
34 | RRIRYRPPRLPRPRPRPKWRPRP | 0.0685
35 | RRIRYRPPRLPRPRPRPKWVPRP | -0.0135
36 | RRIRYRPPRLPRPRPRPKYQPRP | -0.213
37 | RRIRYRPPRLPRPRPRPKYYPRP | -1.43
38 | RRIRYRPPRLPRPRPRPLADPRP | -0.213
39 | RRIRYRPPRLPRPRPRPLCHPRP | -1.18
40 | RRIRYRPPRLPRPRPRPLCPPRP | -0.397
41 | RRIRYRPPRLPRPRPRPLDWPRP | 0.171
42 | RRIRYRPPRLPRPRPRPLEFPRP | -0.89
43 | RRIRYRPPRLPRPRPRPLFKPRP | -0.646
44 | RRIRYRPPRLPRPRPRPLGDPRP | -0.079
45 | RRIRYRPPRLPRPRPRPLGIPRP | -0.576
46 | RRIRYRPPRLPRPRPRPLGVPRP | -0.0163
47 | RRIRYRPPRLPRPRPRPLHRPRP | -0.116
48 | RRIRYRPPRLPRPRPRPLIDPRP | -0.00288
49 | RRIRYRPPRLPRPRPRPLKAPRP | 0.141
50 | RRIRYRPPRLPRPRPRPLKMPRP | -0.26

Row | Sequence | shrunken log2 fold change
51 | RRIRYRPPRLPRPRPRPLMIPRP | -1.73
52 | RRIRYRPPRLPRPRPRPLNSPRP | -0.0402
53 | RRIRYRPPRLPRPRPRPLRSPRP | 0.538
54 | RRIRYRPPRLPRPRPRPLRWPRP | 0.184
55 | RRIRYRPPRLPRPRPRPLSHPRP | -0.678
56 | RRIRYRPPRLPRPRPRPLSPPRP | -0.352
57 | RRIRYRPPRLPRPRPRPLTMPRP | -0.529
58 | RRIRYRPPRLPRPRPRPLWFPRP | -0.494
59 | RRIRYRPPRLPRPRPRPLWRPRP | 0.0545
60 | RRIRYRPPRLPRPRPRPLYLPRP | -0.992
61 | RRIRYRPPRLPRPRPRPMARPRP | -0.0425
62 | RRIRYRPPRLPRPRPRPMCAPRP | -0.208
63 | RRIRYRPPRLPRPRPRPMISPRP | -0.126
64 | RRIRYRPPRLPRPRPRPMKHPRP | -0.495
65 | RRIRYRPPRLPRPRPRPMLWPRP | -0.0139
66 | RRIRYRPPRLPRPRPRPMMLPRP | -0.00141
67 | RRIRYRPPRLPRPRPRPMMTPRP | -0.111
68 | RRIRYRPPRLPRPRPRPMMYPRP | -0.00674
69 | RRIRYRPPRLPRPRPRPMNMPRP | -0.139
70 | RRIRYRPPRLPRPRPRPMPMPRP | -0.319
71 | RRIRYRPPRLPRPRPRPMPNPRP | -0.0961
72 | RRIRYRPPRLPRPRPRPMPYPRP | -0.0899
73 | RRIRYRPPRLPRPRPRPMQNPRP | -0.488
74 | RRIRYRPPRLPRPRPRPMRCPRP | -0.000627
75 | RRIRYRPPRLPRPRPRPMSWPRP | -0.0422

Row | Sequence | shrunken log2 fold change
76 | RRIRYRPPRLPRPRPRPMTRPRP | -0.139
77 | RRIRYRPPRLPRPRPRPMYKPRP | -0.28
78 | RRIRYRPPRLPRPRPRPMYSPRP | -0.018
79 | RRIRYRPPRLPRPRPRPNAHPRP | -0.395
80 | RRIRYRPPRLPRPRPRPNAIPRP | -0.0737
81 | RRIRYRPPRLPRPRPRPNAQPRP | -0.0122
82 | RRIRYRPPRLPRPRPRPNCSPRP | -0.973
83 | RRIRYRPPRLPRPRPRPNEFPRP | -0.498
84 | RRIRYRPPRLPRPRPRPNEHPRP | -0.268
85 | RRIRYRPPRLPRPRPRPNFCPRP | -0.00468
86 | RRIRYRPPRLPRPRPRPNFLPRP | -0.623
87 | RRIRYRPPRLPRPRPRPNGLPRP | -0.0845
88 | RRIRYRPPRLPRPRPRPNHRPRP | -0.767
89 | RRIRYRPPRLPRPRPRPNIWPRP | -0.302
90 | RRIRYRPPRLPRPRPRPNKVPRP | -0.596
91 | RRIRYRPPRLPRPRPRPNMVPRP | -0.0169
92 | RRIRYRPPRLPRPRPRPNNDPRP | -1.14
93 | RRIRYRPPRLPRPRPRPNPHPRP | -0.639
94 | RRIRYRPPRLPRPRPRPNRLPRP | -0.0455
95 | RRIRYRPPRLPRPRPRPNSIPRP | -0.737
96 | RRIRYRPPRLPRPRPRPNSPPRP | -0.21
97 | RRIRYRPPRLPRPRPRPNSQPRP | -0.85
98 | RRIRYRPPRLPRPRPRPNWDPRP | -0.863
99 | RRIRYRPPRLPRPRPRPNWLPRP | -0.226
100 | RRIRYRPPRLPRPRPRPNWTPRP | -0.00491

Row | Sequence | shrunken log2 fold change
101 | RRIRYRPPRLPRPRPRPNYIPRP | -1.2
102 | RRIRYRPPRLPRPRPRPNYTPRP | -0.562
103 | RRIRYRPPRLPRPRPRPPAHPRP | 0.178
104 | RRIRYRPPRLPRPRPRPPCSPRP | -0.957
105 | RRIRYRPPRLPRPRPRPPDIPRP | -0.157
106 | RRIRYRPPRLPRPRPRPPDNPRP | -0.185
107 | RRIRYRPPRLPRPRPRPPFDPRP | -0.565
108 | RRIRYRPPRLPRPRPRPPFPPRP | -0.0826
109 | RRIRYRPPRLPRPRPRPPFRPRP | -0.0932
110 | RRIRYRPPRLPRPRPRPPGFPRP | 0.184
111 | RRIRYRPPRLPRPRPRPPHNPRP | -0.275
112 | RRIRYRPPRLPRPRPRPPHVPRP | -0.142
113 | RRIRYRPPRLPRPRPRPPICPRP | -0.801
114 | RRIRYRPPRLPRPRPRPPIMPRP | -1.14
115 | RRIRYRPPRLPRPRPRPPLCPRP | -0.173
116 | RRIRYRPPRLPRPRPRPPMEPRP | 0.0358
117 | RRIRYRPPRLPRPRPRPPMSPRP | -0.612
118 | RRIRYRPPRLPRPRPRPPNDPRP | -0.151
119 | RRIRYRPPRLPRPRPRPPNVPRP | 0.0158
120 | RRIRYRPPRLPRPRPRPPPLPRP | 0.616
121 | RRIRYRPPRLPRPRPRPPPPPRP | 1.2
122 | RRIRYRPPRLPRPRPRPPQEPRP | 1.9
123 | RRIRYRPPRLPRPRPRPPRAPRP | 0.403
124 | RRIRYRPPRLPRPRPRPPRDPRP | 0.102
125 | RRIRYRPPRLPRPRPRPPSYPRP | -0.156

Row | Sequence | shrunken log2 fold change
126 | RRIRYRPPRLPRPRPRPPTPPRP | 0.104
127 | RRIRYRPPRLPRPRPRPPVEPRP | -0.108
128 | RRIRYRPPRLPRPRPRPPVSPRP | -0.378
129 | RRIRYRPPRLPRPRPRPPYDPRP | -0.553
130 | RRIRYRPPRLPRPRPRPQDAPRP | -0.215
131 | RRIRYRPPRLPRPRPRPQFIPRP | -1.19
132 | RRIRYRPPRLPRPRPRPQFQPRP | -0.718
133 | RRIRYRPPRLPRPRPRPQFTPRP | -0.308
134 | RRIRYRPPRLPRPRPRPQFVPRP | 0.119
135 | RRIRYRPPRLPRPRPRPQFWPRP | 0.313
136 | RRIRYRPPRLPRPRPRPQGEPRP | -0.325
137 | RRIRYRPPRLPRPRPRPQGIPRP | -0.236
138 | RRIRYRPPRLPRPRPRPQHFPRP | -0.0787
139 | RRIRYRPPRLPRPRPRPQIWPRP | -0.662
140 | RRIRYRPPRLPRPRPRPQKEPRP | -0.245
141 | RRIRYRPPRLPRPRPRPQLFPRP | -0.745
142 | RRIRYRPPRLPRPRPRPQLVPRP | -0.045
143 | RRIRYRPPRLPRPRPRPQMAPRP | -1.66
144 | RRIRYRPPRLPRPRPRPQMIPRP | 0.0722
145 | RRIRYRPPRLPRPRPRPQNCPRP | -0.0075
146 | RRIRYRPPRLPRPRPRPQNDPRP | -1.63
147 | RRIRYRPPRLPRPRPRPQPCPRP | 0.025
148 | RRIRYRPPRLPRPRPRPQPQPRP | -0.0927
149 | RRIRYRPPRLPRPRPRPQSMPRP | -0.451
150 | RRIRYRPPRLPRPRPRPQWHPRP | -0.638
